# Results reported in PMC7491322, “Molecular basis for the distinct cellular functions of the Lsm1–7 and Lsm2–8 complexes” (RNA, 2020).
# B1: S. pombe Lsm8 (natural protein, UniProt O74483 2-94, looked up)
# chain: SLADFMEQRVQVITNDGRVVLGSLKGFDHTTNLILSDSFERIISMDQDMETIPLGVYLLRGENVAMVGLVNEELDSEIEWTKIRGEAIPDVVH
# notes: Lsm8, S. pombe, codon-optimised open reading frame, no purification tag; amino-terminal methionine missing by ESI-MS; source: E. coli BL21(DE3) STAR pLysS, coexpressed with the other Lsm proteins, purified as part of the Lsm2–8 complex
# B2: S. pombe Lsm3 (natural protein)
# chain: not shown
# notes: Lsm3, S. pombe, codon-optimised open reading frame; TEV site between GST and Lsm3; The complex was held through the GST on Lsm3 on glutathione agarose during the purification; TEV protease was added to the eluate before the later steps and the crystallisation; source: E. coli BL21(DE3) STAR pLysS, coexpressed with the other Lsm proteins, purified as part of the Lsm2–8 or Lsm1–7 complex; not …
# B3: S. pombe Lsm6 (natural protein, UniProt Q9UUI1 1-75, looked up)
# chain: MDSSPNEFLNKVIGKKVLIRLSSGVDYKGILSCLDGYMNLALERTEEYVNGKKTNVYGDAFIRGNNVLYVSALDD
# notes: Lsm6, S. pombe, codon-optimised open reading frame; source: E. coli BL21(DE3) STAR pLysS, coexpressed with the other Lsm proteins, purified as part of the Lsm2–8 or Lsm1–7 complex; not shown: MBP, N-terminal, cleaved
# Legend:
# Conditions in all cases: both partners purified
# S. pombe Lsm2 [1] = target: T1, S. pombe Lsm2 (S. pombe, UniProt O94408 1-96); assay: crystal structure; Lsm2–8 ring with UUUUU-3′-OH (1.9 Å) or UUUUU>p (2.3 Å); hanging drop, 16°C, 100–200 mM KCl, 50–100 mM HEPES pH 7.4, 35% pentaerythritol propoxylate
# T1 construct: Lsm2, S. pombe, codon-optimised open reading frame, no purification tag; source: E. coli BL21(DE3) STAR pLysS, coexpressed with the other Lsm proteins, purified as part of the Lsm2–8 or Lsm1–7 complex
# T1 sequence (looked up): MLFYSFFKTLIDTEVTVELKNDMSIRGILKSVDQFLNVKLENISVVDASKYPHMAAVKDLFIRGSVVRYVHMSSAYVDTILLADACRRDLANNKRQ
# S. pombe Lsm3 [2] = target: B2; assay: as above
# S. pombe Lsm3, sequence (Q9Y7M4 whole entry): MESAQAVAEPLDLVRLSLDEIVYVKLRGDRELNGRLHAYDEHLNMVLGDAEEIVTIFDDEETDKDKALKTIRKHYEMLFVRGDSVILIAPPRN
# S. pombe Lsm4 = target: T2, S. pombe Lsm4 (S. pombe, UniProt O14352 1-121); assay: as above
# T2 construct: Lsm4, S. pombe, codon-optimised open reading frame; noncleavable tag; source: E. coli BL21(DE3) STAR pLysS, coexpressed with the other Lsm proteins, purified as part of the Lsm2–8 or Lsm1–7 complex; not shown: Strep-II, C-terminal, kept
# T2 sequence (looked up): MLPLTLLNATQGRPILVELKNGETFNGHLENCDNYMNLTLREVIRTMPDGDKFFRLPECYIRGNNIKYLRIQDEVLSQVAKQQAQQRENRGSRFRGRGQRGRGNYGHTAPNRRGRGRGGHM
# S. pombe Lsm2 [3] = target: T1, S. pombe Lsm2; assay: crystal structure; Lsm1_(Δ56C)–7 ring with UUUUUA (1.8 Å) or AUUUUG (2.1 Å); 10% PEG 8000, 20% ethylene glycol, HEPES/MOPS
# S. pombe Lsm3 [4] = target: B2; assay: as above
# S. pombe Lsm5 = target: T3, S. pombe Lsm5 (S. pombe, UniProt O42978 2-80); assay: as above
# T3 construct: Lsm5, S. pombe, codon-optimised open reading frame, no purification tag; amino-terminal methionine missing by ESI-MS; source: E. coli BL21(DE3) STAR pLysS, coexpressed with the other Lsm proteins, purified as part of the Lsm2–8 or Lsm1–7 complex
# T3 sequence (O42978 2-80): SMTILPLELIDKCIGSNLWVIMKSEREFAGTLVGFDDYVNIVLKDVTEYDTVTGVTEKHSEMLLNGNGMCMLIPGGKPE
binder,measurement,setting,value
B1,binding result,S. pombe Lsm2 [1],binds
same,binding result,S. pombe Lsm3 [2],binds
same,binding result,S. pombe Lsm4,binds
B2,binding result,S. pombe Lsm2 [3],binds
B3,binding result,S. pombe Lsm3 [4],binds
same,binding result,S. pombe Lsm5,binds
